T1: IL-15Rbetagamma heterodimer (human, UniProt P14784)
T1 chain 1: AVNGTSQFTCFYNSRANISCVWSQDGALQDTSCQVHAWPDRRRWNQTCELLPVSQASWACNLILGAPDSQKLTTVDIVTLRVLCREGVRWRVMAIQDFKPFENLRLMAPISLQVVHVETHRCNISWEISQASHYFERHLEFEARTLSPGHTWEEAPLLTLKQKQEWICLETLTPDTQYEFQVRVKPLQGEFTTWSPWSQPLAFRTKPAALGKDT
T1 chain 2: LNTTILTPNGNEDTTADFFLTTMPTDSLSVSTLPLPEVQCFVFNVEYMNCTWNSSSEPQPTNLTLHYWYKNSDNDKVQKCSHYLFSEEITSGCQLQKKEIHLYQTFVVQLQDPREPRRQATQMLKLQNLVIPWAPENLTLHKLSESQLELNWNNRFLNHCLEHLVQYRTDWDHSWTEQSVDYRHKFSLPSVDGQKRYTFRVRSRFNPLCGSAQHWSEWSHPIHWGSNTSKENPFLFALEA

B1: RV26 IL-15 arm (antibody, V domains shown)
VH: QVQLVQSGAEVKKPGASVKVSCKASGYSFSSFGISWVRQAPGQGLEWLGWISAFNGYTKYAQKFQDRVTMTTDTSTSTAYMELRSLRSDDTAVYYCARDPAAWPLQQSLAWFDPWGQGTMVTVSS
VL: QSVLTQPPSASGTPGQRVTISCSGSTSNLKRNYVYWYQQLPGTAPKLLIYRDRRRPSGVPDRFSGSKSGTSASLAISGLRSEDEADYYCAWYDRELSEWVFGGGTKLTVL
B2: RV19 IL-15 arm (antibody, V domains shown)
VH: B1 VH
VL: B1 VL
B3: RV18 IL-15 arm (antibody, V domains shown)
VH: B1 VH
VL: B1 VL
B4: RV30 IL-15 arm (antibody, V domains shown)
VH: B1 VH
VL: B1 VL
B5: RV1 (anti-IL-15 mAb DISC0280) (antibody, V domains shown)
VH: B1 VH
VL: B1 VL
B6: RV31 IL-15 arm (antibody, V domains shown)
VH: B1 VH
VL: B1 VL
B7: RV37 IL-15 arm (antibody, V domains shown)
VH: B1 VH
VL: B1 VL
B8: RV36 IL-15 arm (antibody, V domains shown)
VH: B1 VH
VL: B1 VL
B9: RV17 IL-15 arm (antibody, V domains shown)
VH: B1 VH
VL: B1 VL
B10: RV20 IL-15 arm (antibody, V domains shown)
VH: B1 VH
VL: B1 VL
B11: RV32 IL-15 arm (antibody, V domains shown)
VH: B1 VH
VL: B1 VL
B12: RV15 IL-15 arm (antibody, V domains shown)
VH: B1 VH
VL: B1 VL
B13: RV29 IL-15 arm (antibody, V domains shown)
VH: B1 VH
VL: B1 VL
B14: RV36:IL-15 complex (antibody)
chain 1: B1 VH
chain 2: B1 VL
chain 3: not shown
B15: RV32:IL-15 complex (antibody)
chain 1: B1 VH
chain 2: B1 VL
chain 3: not shown
B16: RV15:IL-15 complex (antibody)
chain 1: B1 VH
chain 2: B1 VL
chain 3: not shown
B17: RV29:IL-15 complex (antibody)
chain 1: B1 VH
chain 2: B1 VL
chain 3: not shown
B18: RV18:IL-15 complex (antibody)
chain 1: B1 VH
chain 2: B1 VL
chain 3: not shown
B19: RV31:IL-15 complex (antibody)
chain 1: B1 VH
chain 2: B1 VL
chain 3: not shown
B20: RV37:IL-15 complex (antibody)
chain 1: B1 VH
chain 2: B1 VL
chain 3: not shown
B21: RV30:IL-15 complex (antibody)
chain 1: B1 VH
chain 2: B1 VL
chain 3: not shown
B22: RV20:IL-15 complex (antibody)
chain 1: B1 VH
chain 2: B1 VL
chain 3: not shown
B23: RV26:IL-15 complex (antibody)
chain 1: B1 VH
chain 2: B1 VL
chain 3: not shown
B24: RV1:IL-15 complex (antibody)
chain 1: B1 VH
chain 2: B1 VL
chain 3: not shown
B25: RV19:IL-15 complex (antibody)
chain 1: B1 VH
chain 2: B1 VL
chain 3: not shown
B26: RV17:IL-15 complex (antibody)
chain 1: B1 VH
chain 2: B1 VL
chain 3: not shown
B27: RV20 PD-1 arm (antibody, V domains shown)
VH: QVQLVQSGVEVKKPGASVKVSCKASGYTFTNYYMYWVRQAPGQCLEWMGGINPSNGGTNFNEKFKNRVTLTTDSSTTTAYMELKSLQFDDTAVYYCARRDYRFDMGFDYWGQGTTVTVSS
VL: EIVLTQSPATLSLSPGERATLSCRASKGVSTSGYSYLHWYQQKPGQAPRLLIYLASYLESGVPARFSGSGSGTDFTLTISSLEPEDFAVYYCQHSRDLPLTFGCGTKVEIK
B28: RV26 PD-1 arm (antibody, V domains shown)
VH: B27 VH
VL: B27 VL
B29: RV19 PD-1 arm (antibody, V domains shown)
VH: B27 VH
VL: EIVLTQSPATLSLSPGERATLSCRASKGVSTSGYSYLHWYQQKPGQAPRLLIYLASYLESGVPARFSGSGSGTDFTLTISSLEPEDFAVYYCQHSRDLPLTFGCGTKVEI

Molecular target: T2, IL-15 (human, UniProt P40933)
Test: SPR, anti-human Fc capture

T2 sequence (P40933 49-162): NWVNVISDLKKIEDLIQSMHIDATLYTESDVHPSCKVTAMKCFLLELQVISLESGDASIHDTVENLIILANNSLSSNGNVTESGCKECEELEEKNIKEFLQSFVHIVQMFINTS

Row | Binder | Kd [nM]
1 | B1 | 0.396
2 | B2 | 0.0847
3 | B3 | 0.0769
4 | B4 | 0.077
5 | B5 | 0.349
6 | B6 | 0.18
7 | B7 | 0.0664
8 | B8 | 0.116
9 | B9 | 0.106
10 | B10 | 0.0519
11 | B11 | 0.108
12 | B12 | 0.108
13 | B13 | 0.114

Molecular target: T2, IL-15
Test: SPR, anti-human Fc capture, additional production

Row | Binder | Kd [nM]
14 | B4 | 0.0664
15 | B10 | 0.0531

Molecular target: T1, IL-15Rbetagamma heterodimer
Test: SPR, PD1 capture

Row | Binder | Kd [nM]
16 | B14 | 1.07
17 | B15 | 1.45
18 | B16 | 0.722
19 | B17 | 0.72
20 | B18 | 0.239
21 | B19 | 0.981
22 | B20 | 0.693
23 | B21 | 0.828
24 | B22 | 0.667
25 | B23 | 1.53

Molecular target: T2, IL-15
Test: SPR, PD1 capture

Row | Binder | Kd [nM]
26 | B4 | 0.452
27 | B6 | 0.717
28 | B7 | 0.227
29 | B8 | 0.111
30 | B11 | 0.352
31 | B13 | 0.339

Molecular target: T1, IL-15Rbetagamma heterodimer
Test: SPR, anti-human Fc capture

Row | Binder | Kd [nM]
32 | B14 | 0.771
33 | B15 | 0.742
34 | B16 | 0.804
35 | B17 | 0.732
36 | B18 | 1.02
37 | B19 | 0.979
38 | B20 | 0.986
39 | B24 | 0.705
40 | B25 | 1.17
41 | B21 | 0.849
42 | B22 | 0.852
43 | B23 | 1.36
44 | B26 | 0.99

Molecular target: T3, PD-1 (human, UniProt Q15116)
Test: SPR, protein A capture

T3 sequence (Q15116 25-167): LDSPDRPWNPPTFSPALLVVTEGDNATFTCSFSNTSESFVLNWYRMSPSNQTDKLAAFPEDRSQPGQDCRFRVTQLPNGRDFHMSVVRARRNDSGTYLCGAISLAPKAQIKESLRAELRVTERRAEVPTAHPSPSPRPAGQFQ

Row | Binder | Kd [nM]
45 | B27 | 269

Molecular target: T2, IL-15
Test: SPR, PD1 capture, additional production

Row | Binder | Kd [nM]
46 | B4 | 0.85
47 | B10 | 0.169

Molecular target: T1, IL-15Rbetagamma heterodimer
Test: SPR, PD1 capture, additional production

Row | Binder | Kd [nM]
48 | B21 | 0.665
49 | B22 | 0.726

Molecular target: T3, PD-1
Test: SPR, PD1 surface

Row | Binder | Kd [nM]
50 | B27 | 17.2
51 | B28 | 2.19

Molecular target: T1, IL-15Rbetagamma heterodimer
Test: SPR, anti-human Fc capture, IL-15 and PD1 bound

Row | Binder | Kd [nM]
52 | B20 | 0.848
53 | B21 | 0.706

Molecular target: T3, PD-1
Test: SPR, protein A capture
Remark: another data set of the same source

Row | Binder | binding result
54 | B29 | no binding

Molecular target: T3, PD-1
Test: SPR, anti-human Fc capture, additional production

Row | Binder | Kd [nM]
55 | B27 | 3.99
